Experimental data published in PMC4041088.

Molecular target: FLAG-tagged murine lipin 1b (murine) (UniProt Q91ZP3)
Test: atomic force microscopy

stoichiometry N: 12
Substance: FLAG-tagged murine lipin 1b (from UniProt Q91ZP3 1-924) (enzyme)
